Laboratory results from US20260125472A1 (HEFEI TG IMMUNOPHARMA, published 2026).

Legend:
CD3E&D protein [1] = target: T1, CD3E&D protein (UniProt P04234 22-105); assay: ELISA, coated CD3E&D protein, OD450 [panel C]
T1 construct: Purchased from Acro; also called CD3 E&D antigens; CD3E&D antigen protein
Method: In this example, the binding properties of the parental antibody Cross3 and the CD3 affinity-reduced antibody (the production method and the amino acid sequences of the heavy and light chains were shown in Example 1) were detected by ELISA. The CD3E&D protein was coated onto a 96-well plate by the inventors, and the strength of the signal after the addition of the antibody was used to determine the binding properties of the antibody and CD3E&D.
CD3E&D protein (purchased from Acro) was diluted to 2 μg/ml with PBS buffer, added to a 96-well plate at a volume of 100 μL/well, and placed at 4° C. overnight. The PBS buffer in the 96-well plate was aspirated, and the plate was washed 6 times with PBST (pH 7.2 PBS containing 0.1% Tween 20) buffer. Then, 200 μL/well PBS/10% BSA was added and incubated at 37° C. for 2 h for blocking. The blocking solution was removed, and the plate was washed six times with PBST. Then, the to-be-tested antibodies serially diluted with PBST/0.05% BSA, Cross3, Cross303, Cross307, Cross308, Cross309, Cross310, Cross311, Cross312, Cross313, Cross314, Cross316, Cross317, Cross318, Cross323, Cross325, Cross326, and control IgG1 (purchased from Bio-Tech) were added at 100 μL/well, and incubated at 37° C. for 1 h. The reaction system was removed, and the plate was washed 6 times with PBST. Then, the cells were incubated at 37° C. for 1 h with HRP (horseradish peroxidase)-labeled anti-human secondary antibody (Fab specific) (purchased from Sigma) serially diluted with PBST/0.05% BSA at 100 μL/well. The plate was washed six times with PBST, TMB (tetramethylbenzidine) was added at 80 μL/well and incubated at room temperature for 3 min. 4 M sulfuric acid was added at 80 μL/well to terminate the reaction. The absorbance was read at 450 nm using a microplate reader.

CD3 on CD8 T cells = target: T2, CD3 on CD8 T cells (Homo sapiens (Human), UniProt P07766 23-207); assay: flow cytometry, CD8 T cells in PBMCs, binding ratio % [panel A]
T2 construct: Native CD3 complex on CD8 T cells among PBMCs; also called T cells (PBMCs gated with anti-human CD8 antibody)
Method: PBMCs were diluted with PBS to 2×10⁶/mL and added to a 1.5 ml EP tube at a volume of 100 μL/tube, 10 μL/tube of goat serum was added thereto and incubated at 4° C. for 30 min for blocking. […] 1 mL of PBS was added to the EP tube, followed by centrifugation at 3500 rpm for 5 min at 4° C. The supernatant was discarded, and the cells were washed again with PBS. After centrifugation, the supernatant was discarded, and the cells were resuspended with 100 μl/tube PBS. 1 μl/tube Alexa-647-labeled goat anti-human secondary antibody (purchased from Jackson lab) and 0.5 μl/tube PerCP-Cy5.5-labeled anti-human CD8 antibody were added and incubated at 4° C. in the dark for 30 min. The cells were washed twice with PBS, and the supernatant was discarded after centrifugation. The cells were resuspended with […] of PBS and assayed using the flow cytometry.

CD3E&D protein [2] = target: T1, CD3E&D protein; assay: SPR (Biacore 8K), antibody on CM5 chip, CD3 E&D antigen as analyte; design: Fold change: reference not given here
Method: In a Biacore 8K (Cytiva) system, the antibody was diluted to 10 μg/mL in HBS-EP running buffer and coupled to a CM5 chip (Cytiva) at a flow rate of 10 μL/min.

[3] = target: T3, PDL1 on A-375 melanoma cells, HCT-15 colorectal cancer cells and A549 lung cancer cells (UniProt Q9NZQ7 19-290, limits assumed); assay: flow cytometry, A549 cells, MFI [panel B]
T3 construct: whole, on cells
Outline: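 Cells were blocked with goat serum at 4° C for 30 min, then incubated with serially diluted bispecific antibodies or hIgG1LALA control at 4° C for 30 min. Bound antibody was detected with Alexa-647 anti-human IgG (4° C, 30 min, dark) and read by flow cytometry.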

PDL1 protein = target: T4, PDL1 protein (UniProt Q9NZQ7 19-238); assay: ELISA, coated PDL1 protein, OD450 [panel B]
T4 construct: Bought recombinant protein
Method: (3) PDL1 protein (purchased from Acro) was diluted to 2 μg/ml with PBS buffer, added to a 96-well plate at a volume of 100 μL/well, and placed at 4° C. overnight. The PBS buffer in the 96-well plate was aspirated, and the plate was washed 6 times with PBST (pH 7.2 PBS containing 0.10% Tween 20) buffer. Then, PBS/10% BSA was added at 200 μL/well and incubated at 37° C. for 2 h for blocking. The blocking solution was removed, and the plate was washed six times with PBST. Then, the to-be-tested bispecific antibodies serially diluted with PBST/0.05% BSA, Cross3×PDL1, Cross303×PDL1, Cross307×PDL1, Cross308×PDL1, Cross309×PDL1, Cross310×PDL1, Cross311×PDL1, Cross312×PDL1, Cross313×PDL1, Cross314×PDL1, Cross316×PDL1, Cross317×PDL1, Cross318×PDL1, Cross323×PDL1, Cross325×PDL1, Cross326×PDL1, and control IgG1LALA (purchased from Bio-Tech) were added at 100 μL/well, and incubated at 37° C. for 1 h. The reaction system was removed, and the plate was washed 6 times with PBST. Then, the cells were incubated at 37° C. for 1 h with HRP (horseradish peroxidase)-labeled anti-human secondary antibody (Fab specific) (purchased from Sigma) serially diluted with PBST/0.05% BSA at 100 μL/well. After the plate was washed six times with PBST, TMB (tetramethylbenzidine) was added at 80 μL/well and incubated at room temperature for 3 min. 4 M sulfuric acid was added at 80 μL/well to terminate the reaction. The absorbance was read at 450 nm using a microplate reader.

CD3E&D protein [4] = target: T1, CD3E&D protein; assay: ELISA, coated CD3E&D protein, OD450 [panel B]
From the text: In this example, the binding properties of the CD3×Trop2 and CD3×PDL1 bispecific antibody (the production method and the amino acid sequences of the heavy and light chains were shown in Example 1) were detected by using ELISA. The CD3E&D, Trop2, or PDL1 protein was coated onto 96-well plates by inventors, and the strength of the signal after the addition of the antibody was used to determine the binding properties of the antibody and the corresponding protein.
(1) CD3E&D protein (purchased from Acro) was diluted to 2 μg/ml with PBS buffer, added to a 96-well plate at a volume of 100 μL/well, and placed at 4° C. overnight. The PBS buffer in the 96-well plate was aspirated, and the plate was washed 6 times with PBST (pH 7.2 PBS containing 0.1% Tween 20) buffer. Then, 200 μL/well PBS/10% BSA was added and incubated at 37° C. for 2 h for blocking. The blocking solution was removed, and the plate was washed 6 times with PBST. Then, the to-be-tested bispecific antibodies serially diluted with PBST/0.05% BSA, Cross3×Trop2, Cross303×Trop2, Cross307×Trop2, Cross308×Trop2, Cross309×Trop2, Cross310×Trop2, Cross311×Trop2, Cross312×Trop2, Cross313×Trop2, Cross314×Trop2, Cross316×Trop2, Cross317×Trop2, Cross318×Trop2, Cross323×Trop2, Cross325×Trop2, Cross326×Trop2, Cross3×PDL1, Cross303×PDL1, Cross307×PDL1, Cross308×PDL1, Cross309×PDL1, Cross310×PDL1, Cross311×PDL1, Cross312×PDL1, Cross313×PDL1, Cross314×PDL1, Cross316×PDL1, Cross317×PDL1, Cross318×PDL1, Cross323×PDL1, Cross325×PDL1, Cross326×PDL1, and control IgG1LALA (purchased from Bio-Tech) were added at 100 μL/well, and incubated at 37° C. for 1 h. The reaction system was removed, and the plate was washed 6 times with PBST. Then, the cells were incubated at 37° C. for 1 h with HRP (horseradish peroxidase)-labeled anti-human secondary antibody (Fab specific) (purchased from Sigma) diluted with PBST/0.05% BSA at 100 μL/well. After the plate was washed six times with PBST, 80 μL/well TMB (tetramethylbenzidine) was added and incubated at room temperature for 3 min. […] The absorbance was read at 450 nm using a microplate reader.

T1 sequence (chain, as listed by the source limits assumed, chain 1 of 2): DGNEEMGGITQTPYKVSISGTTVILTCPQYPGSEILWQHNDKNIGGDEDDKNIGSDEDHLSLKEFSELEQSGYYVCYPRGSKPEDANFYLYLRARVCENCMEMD
T1 sequence (P04234 22-105 limits assumed, chain 2 of 2): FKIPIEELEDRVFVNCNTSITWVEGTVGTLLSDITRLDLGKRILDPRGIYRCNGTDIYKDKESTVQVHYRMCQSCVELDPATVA
T4 sequence (Q9NZQ7 19-238 limits assumed): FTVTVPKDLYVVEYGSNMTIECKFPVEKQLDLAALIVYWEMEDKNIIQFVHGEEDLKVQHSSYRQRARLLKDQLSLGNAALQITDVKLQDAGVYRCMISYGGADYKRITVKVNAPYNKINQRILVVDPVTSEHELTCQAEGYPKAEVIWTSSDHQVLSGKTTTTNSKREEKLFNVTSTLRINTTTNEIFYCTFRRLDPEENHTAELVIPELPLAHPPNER
T3 sequence (Q9NZQ7 19-290 limits assumed): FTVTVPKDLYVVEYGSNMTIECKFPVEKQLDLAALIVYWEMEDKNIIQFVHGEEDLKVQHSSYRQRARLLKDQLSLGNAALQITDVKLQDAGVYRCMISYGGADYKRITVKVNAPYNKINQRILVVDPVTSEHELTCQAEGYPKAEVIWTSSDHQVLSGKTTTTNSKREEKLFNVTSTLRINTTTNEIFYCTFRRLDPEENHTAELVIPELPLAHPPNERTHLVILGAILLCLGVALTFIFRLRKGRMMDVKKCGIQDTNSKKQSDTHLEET
T2 sequence (P07766 23-207 limits assumed): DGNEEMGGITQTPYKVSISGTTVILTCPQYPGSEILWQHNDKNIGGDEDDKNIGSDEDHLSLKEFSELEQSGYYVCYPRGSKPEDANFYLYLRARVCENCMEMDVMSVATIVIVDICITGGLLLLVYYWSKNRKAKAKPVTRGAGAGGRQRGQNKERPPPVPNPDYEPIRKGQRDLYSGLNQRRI

Binder	EC50 (read off the curve) (CD3E&D protein [1]) [ng/mL]	EC50 (read off the curve) (CD3 on CD8 T cells) [µg/mL]	Fold change (CD3E&D protein [2])	Kd (CD3E&D protein [2]) [nM]	koff (CD3E&D protein [2]) [s⁻¹]	kon (CD3E&D protein [2]) [M⁻¹ s⁻¹]	EC50 (read off the curve) [3] [µg/mL]	EC50 (read off the curve) (PDL1 protein) [ng/mL]	EC50 (read off the curve) (CD3E&D protein [4]) [ng/mL]
Cross325 (antibody, human IgG1, kappa, V domains shown) VH: EVQLLESGGGLVQPGGSLKLSCAASGFTFNTYAMNWVRQAPGKGLEWVARIRSKYNNYATYYADSVKDRFTISRDDSKNTAYLQMNNLKTEDTAVYYCVRHGNFGNSYVSWFAYWGQGTLVTVSS VL: ELVVTQEPSLTVSPGGTVTLTCRSSTGAVTTSNYANWVQQKPGQAPRGLIGGTNKRAPGTPARFSGSLLGGKAALTLSGVQPEDEAEYYCALWYSNDWVFGGGTKLTVLR	~30	~0.3	15.6	2.57	0.00366	1.42e+06	–	–	–
Cross318×PDL1 (bispecific antibody, human IgG1, kappa, L234A L235A) scFv: not shown heavy: QVQLVQSGAEVKKPGASVKVSCKASGYSFTGYYMHWVRQAPGQGLEWIGRINPYNGATTYSQNFKDRATMTVDTSISTAYMELSRLRSDDTAVYYCVPTGMGYFLMDYWGQGTLVTVSSASTKGPSVFPLAPSSKSTSGGTAALGCLVKDYFPEPVTVSWNSGALTSGVHTFPAVLQSSGLYSLSSVVTVPSSSLGTQTYICNVNHKPSNTKVDKKVEPKSCDKTHTCPPCPAPEAAGGPSVFLFPPKPKDTLMISRTPEVTCVVVDVSHEDPEVKFNWYVDGVEVHNAKTKPREEQYNSTYRVVSVLTVLHQDWLNGKEYKCKVSNKALPAPIEKTISKAKGQPREPQVCTLPPSREEMTKNQVSLSCAVKGFYPSDIAVEWESNGQPENNYKTTPPVLDSDGSFFLVSKLTVDKSRWQQGNVFSCSVMHEALHNHYTQKSLSLSPGK light: DIQLTQSPSFLSASVGDRVTITCKASQDVGSAVVWYQQKPGKAPKLLIYWASTRHTGVPSRFSGSGSGTEFTLTISSLQPEDFATYFCQQFTSYPTFGQGTKLEIKRTVAAPSVFIFPPSDEQLKSGTASVVCLLNNFYPREAKVQWKVDNALQSGNSQESVTEQDSKDSTYSLSSTLTLSKADYEKHKVYACEVTHQGLSSPVTKSFNRGEC	–	–	–	–	–	–	~1	~200	~1000
Cross323×PDL1 (bispecific antibody, human IgG1, kappa, L234A L235A) scFv: not shown heavy: QVQLVQSGAEVKKPGASVKVSCKASGYSFTGYYMHWVRQAPGQGLEWIGRINPYNGATTYSQNFKDRATMTVDTSISTAYMELSRLRSDDTAVYYCVPTGMGYFLMDYWGQGTLVTVSSASTKGPSVFPLAPSSKSTSGGTAALGCLVKDYFPEPVTVSWNSGALTSGVHTFPAVLQSSGLYSLSSVVTVPSSSLGTQTYICNVNHKPSNTKVDKKVEPKSCDKTHTCPPCPAPEAAGGPSVFLFPPKPKDTLMISRTPEVTCVVVDVSHEDPEVKFNWYVDGVEVHNAKTKPREEQYNSTYRVVSVLTVLHQDWLNGKEYKCKVSNKALPAPIEKTISKAKGQPREPQVCTLPPSREEMTKNQVSLSCAVKGFYPSDIAVEWESNGQPENNYKTTPPVLDSDGSFFLVSKLTVDKSRWQQGNVFSCSVMHEALHNHYTQKSLSLSPGK light: DIQLTQSPSFLSASVGDRVTITCKASQDVGSAVVWYQQKPGKAPKLLIYWASTRHTGVPSRFSGSGSGTEFTLTISSLQPEDFATYFCQQFTSYPTFGQGTKLEIKRTVAAPSVFIFPPSDEQLKSGTASVVCLLNNFYPREAKVQWKVDNALQSGNSQESVTEQDSKDSTYSLSSTLTLSKADYEKHKVYACEVTHQGLSSPVTKSFNRGEC	–	–	–	–	–	–	–	~200	~1000
